In the supplement of paper PMC10126150:
± gives the standard deviation of the averaged measurements.

Tested on: ATP
Experiment: switch fluorescence ratio, 500 uM ATP over buffer (Cy3 cluster intensity, sum of 5 cycles each) (fold (ratio)); higher = stronger signal-on switching upon ATP binding; sequences stand for … in TCGTCGGCAGCGTCAGATGTGTATAAGAGACAGTTTTTTTTTTTTTTTTTTTTTTTTT…TC
Conditions: aptamer strand: ATP DNA aptamer (quencher-CACCTGGGGGAGTATTGCGGAGGAAGG + anchor), 100 nM annealed; ATP concentration: 500 uM
How it was run: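 The quencher-labelled ATP aptamer, at 100 nM, was annealed to Cy3-labelled switching-strand clusters on a modified Illumina MiSeq flow-cell. The clusters were imaged in selection buffer, then after 15 min with 500 uM ATP at 22 °C, and this buffer/ATP cycle ran five times with NaOH stripping and re-annealing between runs. Per-cluster fluorescence ratios, summed target-cycle over summed buffer-cycle Cy3 intensity, were averaged per switch-domain sequence. Clusters outside 100-1000 RFU were excluded.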
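Further: ATP exposure 15 min at 22 °C before imaging.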

Point of comparison: GGTGAAAGCT, switch fluorescence ratio 1.04 ± 0.019. Against it:
- GGGTTTTATC — within error, 0.999 ± 0.035
- GGGTTTTCGG — lower, 0.987 ± 0.026
- GGGTTTTGGA — within error, 0.998 ± 0.039
- GGGTTTTTAG — within error, 0.994 ± 0.033
- GGTAAACGGA — within error, 1.02 ± 0.044
- GGTAAAGGGG — within error, 0.991 ± 0.058
- GGTAAATTTT — lower, 1 ± 0.018
- GGTAACATTT — within error, 1.061 ± 0.0053
- GGTAACGGGG — within error, 1.06 ± 0.065
- GGTAACTTGG — within error, 1.01 ± 0.034
- GGTAATATTA — within error, 1.07 ± 0.051
- GGTAATTGTG — lower, 0.987 ± 0.016
- GGTAATTGTT — within error, 0.998 ± 0.025
- GGTACATGGG — lower, 0.975 ± 0.021
- GGTACGAAAG — within error, 1.01 ± 0.026
- GGTACGATGG — within error, 1.01 ± 0.015
- GGTACTATAG — within error, 1.034 ± 0.0066
- GGTACTCGTA — within error, 1.01 ± 0.039
- GGTACTTCGA — lower, 0.9938 ± 0.0015
- GGTAGATATG — within error, 1.021 ± 0.0078
- GGTAGATCGG — lower, 1.004 ± 0.0061
- GGTAGGAACC — within error, 1.01 ± 0.021
- GGTAGGCCTG — within error, 0.989 ± 0.056
- GGTAGGCGGG — lower, 0.959 ± 0.018
- GGTAGGCTGC — lower, 0.986 ± 0.018
- GGTAGGGGCG — within error, 1.03 ± 0.031
- GGTAGGGGTA — within error, 1.03 ± 0.084
- GGTAGGGGTC — within error, 1.01 ± 0.056
- GGTAGGGGTG — within error, 1.07 ± 0.033
- GGTAGTGGGA — within error, 1 ± 0.046
- GGTAGTGGGG — lower, 0.987 ± 0.021
- GGTATAAATT — lower, 0.939 ± 0.011
- GGTATAAGAT — within error, 1.01 ± 0.013
- GGTATACTGA — within error, 1.05 ± 0.049
- GGTATAGGGG — within error, 0.995 ± 0.054
- GGTATAGGTC — within error, 1.05 ± 0.011
- GGTATATATG — within error, 0.995 ± 0.055
- GGTATATCTG — within error, 1.01 ± 0.039
- GGTATATGTG — within error, 1 ± 0.025
- GGTATCACCT — the same, 1.04 ± 0.034
- GGTATCTCGA — within error, 1.03 ± 0.044
- GGTATCTGAT — within error, 1.03 ± 0.02
- GGTATGGAGG — within error, 0.988 ± 0.038
- GGTATGGCGA — lower, 0.939 ± 0.048
- GGTATGTAGG — lower, 0.978 ± 0.012
- GGTATTATAT — lower, 0.98 ± 0.038
- GGTATTATGG — within error, 1 ± 0.029
- GGTATTCGGC — within error, 1.01 ± 0.017
- GGTATTCTGT — lower, 0.951 ± 0.03
- GGTATTGGAG — lower, 0.984 ± 0.015
- GGTATTGGTA — within error, 1.13 ± 0.25
- GGTATTGTTG — within error, 1 ± 0.024
- GGTATTTTAA — the same, 1.04 ± 0.027
- GGTCAAACCC — within error, 1.032 ± 0.0044
- GGTCAAGCTC — within error, 1.02 ± 0.02
- GGTCAAGGCC — within error, 0.999 ± 0.041
- GGTCAAGTGG — lower, 1 ± 0.02
- GGTCAAGTTG — lower, 0.961 ± 0.019
- GGTCAGGGGA — within error, 0.988 ± 0.04
- GGTCATAGGG — lower, 0.958 ± 0.022
- GGTCATGCGG — within error, 1.01 ± 0.021
- GGTCCAAAAG — lower, 1.008 ± 0.0075
- GGTCCAGGAT — within error, 1.018 ± 0.0068
- GGTCCATACG — within error, 1.01 ± 0.025
- GGTCCCAAAA — lower, 0.981 ± 0.032
- GGTCCCCAAT — lower, 1 ± 0.013
- GGTCCGGCAC — higher, 1.079 ± 0.009
- GGTCCGGGCT — lower, 1 ± 0.02
- GGTCCTAATA — within error, 1 ± 0.026
- GGTCCTCTTT — lower, 0.98275 ± 0.00076
- GGTCCTGCGG — within error, 1.01 ± 0.087
- GGTCCTGGCT — lower, 1.015 ± 0.01
- GGTCGAAAGG — within error, 0.985 ± 0.063
- GGTCGAGCTA — within error, 0.996 ± 0.042
- GGTCGCGGGG — within error, 1.03 ± 0.027
- GGTCGCTTGG — the same, 1.04 ± 0.061
- GGTCGGGCTG — lower, 0.9942 ± 0.0047
- GGTCGGGGCA — within error, 1.02 ± 0.025
- GGTCGGGGGG — within error, 1.03 ± 0.037
- GGTCGGGGTG — within error, 1.09 ± 0.069
- GGTCGTCTTG — within error, 0.996 ± 0.04
- GGTCGTGTAA — within error, 0.991 ± 0.061
- GGTCGTTTTG — lower, 0.991 ± 0.025
- GGTCTAAGTA — within error, 1.08 ± 0.084
- GGTCTAGTCC — within error, 1.018 ± 0.0034
- GGTCTATCGG — lower, 0.965 ± 0.018
- GGTCTATCGT — within error, 1 ± 0.039
- GGTCTCAGGT — within error, 1.03 ± 0.023
- GGTCTCCTTT — lower, 0.971 ± 0.018
- GGTCTGAAGT — lower, 1.008 ± 0.004
- GGTCTGGGAG — within error, 1 ± 0.023
- GGTCTGGGTG — within error, 1.08 ± 0.066
- GGTCTGTTGT — within error, 0.99 ± 0.049
- GGTCTTGTTT — lower, 0.9891 ± 0.0078
- GGTCTTTTGG — lower, 0.981 ± 0.013
- GGTGAAATTG — lower, 1 ± 0.015
- GGTGAAGAGG — lower, 0.9791 ± 0.0061
- GGTGAAGCCT — within error, 0.991 ± 0.047
- GGTGAATGGC — within error, 1.03 ± 0.017
